# In paper PMC10016618 (Nature cell biology, 2021):
# Substitutions are numbered along the chain they refer to. Like-named read-outs stand apart in the source and are kept apart here.
# T1: Kif7-DM(E502A)-GFP (human, UniProt Q2M1P5 1-543, E502A)
# T1 sequence (looked up): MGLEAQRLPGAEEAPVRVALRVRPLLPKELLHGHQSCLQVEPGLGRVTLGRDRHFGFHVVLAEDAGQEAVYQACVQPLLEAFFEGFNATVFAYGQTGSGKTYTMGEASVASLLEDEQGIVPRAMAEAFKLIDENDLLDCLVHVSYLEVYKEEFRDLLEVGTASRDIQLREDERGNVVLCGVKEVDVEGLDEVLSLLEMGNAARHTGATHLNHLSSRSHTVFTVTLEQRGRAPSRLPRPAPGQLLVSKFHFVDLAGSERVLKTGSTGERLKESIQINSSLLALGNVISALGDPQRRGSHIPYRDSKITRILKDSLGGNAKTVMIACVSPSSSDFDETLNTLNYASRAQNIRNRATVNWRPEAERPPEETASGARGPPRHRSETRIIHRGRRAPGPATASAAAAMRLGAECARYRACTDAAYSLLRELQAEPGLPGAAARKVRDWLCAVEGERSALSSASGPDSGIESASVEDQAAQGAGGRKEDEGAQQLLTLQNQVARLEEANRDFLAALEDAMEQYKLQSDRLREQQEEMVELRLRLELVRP
# T2: Kif7-DM (1-543aa) (human, UniProt Q2M1P5 1-543)
# T2 sequence (looked up): T1 sequence (looked up) with A502E
# B1: Kif7-DM-GFP (1-543aa) (domain or fragment, human, UniProt Q2M1P5 1-543, looked up)
# chain: T1 sequence (looked up) with A502E
# B2: Gli2-ZF-SNAP (domain or fragment, human, UniProt P10070 418-604, looked up)
# chain: KEDLDRDDCKQEAEVVIYETNCHWEDCTKEYDTQEQLVHHINNEHIHGEKKEFVCRWQACTREQKPFKAQYMLVVHMRRHTGEKPHKCTFEGCSKAYSRLENLKTHLRSHTGEKPYVCEHEGCNKAFSNASDRAKHQNRTHSNEKPYICKIPGCTKRYTDPSSLRKHVKTVHGPDAHVTKKQRNDVH
# modifications: Alexa-647 label (TIRFM assays)
# Key:
# [1] = target: the molecule itself; assay: single molecule fluorescence intensity and step-photobleaching analysis
# [2] = target: GDP-taxol stabilized microtubules (bovine tubulin) (bovine) (UniProt Q6B856); assay: co-sedimentation
# [3] = target: GDP-taxol stabilized microtubules (bovine tubulin) (bovine) (UniProt Q6B856); assay: co-sedimentation; remark: listed apart in the source
# Kif7-DM(E502A)-GFP = target: T1, Kif7-DM(E502A)-GFP; assay: TIRF microscopy, recruitment to immobilised microtubules
# Kif7-DM-GFP (1-543aa) = target: B1; assay: as above
# Kif7-DM (1-543aa) = target: T2, Kif7-DM (1-543aa); assay: BLI
binder,measurement,setting,value
B1,stoichiometry N,[1],2
same,Kd,[2],540 nM
same,Kd,[3],4230 nM
B2,binding result,Kif7-DM(E502A)-GFP,binds
same,fold enrichment of Gli2-ZF on microtubules over no kinesin control,Kif7-DM-GFP (1-543aa),~9 fold
same,Kd,Kif7-DM (1-543aa),99 ± 23 nM
